Legend:
[1] = biological target: T1, Human OX40R-IgG1 fusion protein (human, UniProt P43489 29-208); experiment: Alphascreen binding assay, increasing OX40L-CD8 with 10 nM OX40R-IgG1; 10 nM OX40-IgG1
T1 construct: range 1-208; Purified on protein G; also called OX40-IgG1; OX40-IgG; not shown: constant region of human IgG1 (hinge region, CH2 and CH3), amino acids 98-330 of SWISSPROT Acc; No. P01857
T1 sequence (looked up): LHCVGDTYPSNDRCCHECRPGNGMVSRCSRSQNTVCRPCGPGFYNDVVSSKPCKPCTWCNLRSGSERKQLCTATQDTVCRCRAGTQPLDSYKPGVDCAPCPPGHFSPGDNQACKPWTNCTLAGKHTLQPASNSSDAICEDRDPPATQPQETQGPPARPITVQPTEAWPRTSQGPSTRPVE

[2] = biological target: T1, Human OX40R-IgG1 fusion protein; experiment: Alphascreen saturation binding, 10 nM OX40R-IgG1, non-specific binding determined with 1 mM suramin
[3] = biological target: T1, Human OX40R-IgG1 fusion protein; experiment: Alphascreen binding assay, increasing OX40L-CD8 with 5 nM OX40R-IgG1; 5 nM OX40-IgG1
[4] = biological target: T1, Human OX40R-IgG1 fusion protein; experiment: fluorescence quenching spectroscopy of OX40R-IgG1 intrinsic fluorescence, non-linear regression
Procedure: (§1) The fluorescence quenching assay was performed as previously described (Golabek A et al., 2000). OX40R-IgG₁ (35 micrograms) was dissolved in 500 microliters of PBS and the fluorescence spectum was recorded at 295-420 nanometers with an excitation wavelength of 290 nanometers using a spectrofluorimeter (Perkin Elmer LS50B) with the slits set at 5 nanometers. Fluorescence spectra of human OX40R-IgG₁ were then recorded in the presence of increasing concentrations (5-1000 nM) of P5 and P5-1 peptides after 15 minutes of equilibration. The fluorescence change at 336 nanometers was plotted versus peptide concentration and the resulting curves were analyzed by nonlinear regression fit with Prism® software (GraphPad).
(§2) The affinity of the peptides identified in Example 1 as inhibitor of OX40L-OX40R interaction was evaluated by fluorescence quenching spectroscopy, a technology allowing such measurements in solution, under native conditions and without beads or other supports. This method is based on monitoring the changes in the intrinsic fluorescence of a protein (OX40R-IgG₁) upon its binding with another protein (P5 or P5-1). […]

[5] = biological target: T1, Human OX40R-IgG1 fusion protein; experiment: fluorescence quenching spectroscopy of OX40R-IgG1 in solution
Procedure: as §1, §2

[6] = biological target: T1, Human OX40R-IgG1 fusion protein; experiment: Alphascreen-based competition assay against OX40L-CD8 on OX40R-IgG1; P5 (amino acids 94-124)
Procedure: (§3) The soluble components (OX40-IgG₁, OX40L-CD8 and biotinylated anti-CD8 antibody) were mixed at the concentration described before for the competition assays with OX40L and suramin (FIG. 4), together with various concentrations of each peptide in a 5 microliter volume into a first addition step. The streptavidin donor and Protein A acceptor beads were added 30 minutes later. The plates were incubated for 2 hours in the dark, at room temperature and with shaking, before reading at a long excitation wavelength of 680 nm combined with a shorter emission wavelength of 520-620 nanometers, as described in Example 1.

[7] = biological target: T1, Human OX40R-IgG1 fusion protein; experiment: Alphascreen competition against OX40L-CD8, IC50 transformed by the Cheng-Prusoff equation
Procedure: (§4) In the standard assay, OX40-IgG₁ and OX40L-CD8 were incubated together for 30 minutes, and then biotinylated anti-CD8 antibody (10 nM) was added. Following another incubation period of 30 minutes, streptavidin donor beads (20 μg/ml) and Protein A acceptor beads (20 μg/ml) were added to each individual well. The plate was counted 1 hour later using a Packard Fusion™ reader (Biosignal Packard) set at a read time of 1 second/well. Owing to the light sensitivity of the donor and acceptor beads, the experiments were carried out under […] and all incubation periods were performed at room temperature. The plate was read at an excitation wavelength of 680 nanometers combined with a shorter emission wavelength of 520-620 nanometers.
(§5) The ability of two known competitors of OX40L-OX40R interactions (untagged recombinant human soluble OX40L and suramin), which are themselves unable to generate an Alphascreen™ signal in this assay in absence of OX40L-CD8, to displace OX40L-CD8 from OX40R-IgG₁ was investigated. […] Increasing concentrations of OX40L (3 μM-0.1 pM) or suramin (1 mM -1 nM) were added to a reaction mixture also containing OX40-IgG₁ (10 nM) and OX40L-CD8 (40 nM). […] These values can be transformed by the Cheng-Prusoff equation (Cheng, Y C and Prusoff, W H, 1973) to Kᵢ values of 2.0 nM for OX40L and 26.3 μM for suramin. […]

[8] = biological target: T1, Human OX40R-IgG1 fusion protein; experiment: Alphascreen competition, soluble OX40L displacing OX40L-CD8 (40 nM) from OX40R-IgG1 (10 nM)
Procedure: as §4, §5

[9] = biological target: T1, Human OX40R-IgG1 fusion protein; experiment: Alphascreen-based competition assay against OX40L-CD8 on OX40R-IgG1; P5-1 (amino acids 107-116)
Procedure: as §3

Human OX40L-murine CD8 (from UniProt P01731 28-196) (ligand)
EC50 [1]: 7.9 nM
Kd [2]: 20.7 nM
EC50 [3]: 7.7 nM

B1: Peptide P5 (amino acids 94-124 of human OX40L) (peptide)
peptide: IINCDGFYLISLKGYFSQEVNISLHYQKDEE
notes: Synthetic peptide (Epytop), purity 85-97%
Kd [4]: 7.96 nM
Kd [5]: ~7.9 nM
Kd [6]: ~10000 nM

B2: Recombinant human soluble OX40L (ligand)
chain: QVSHRYPRIQSIKVQFTEYKKEKGFILTSQKEDEIMKVQNNSVIINCDGFYLISLKGYFSQEVNISLHYQKDEEPLFQLKKVRSVNSLMVASLTYKDKVYLNVTTDNTSLDDFHVNGGELILIHQNPGEFCVL
notes: also called untagged recombinant human soluble OX40L; not shown: Glutathione-S-Transferase (GST) fusion partner
Ki [7]: 2 nM
IC50 [8]: 5.9 nM

GYFSQEVNIS (Synthetic peptide (Epytop)) [Peptide P5-1 (amino acids 107-116 of human OX40L)]
Kd [4]: 24.6 nM
Kd [5]: ~24.6 nM
Kd [9]: ~62000 nM

Source: patent publication US20070009964A1 (MERCK SERONO, published 2007)
